Paper PMC3836737, “Brd4 Is Displaced from HPV Replication Factories as They Expand and Amplify Viral DNA” (PLoS Pathogens, 2013)
Residue numbers refer to the chain shown, from its start.

B1: HPV16 E2 I73L (natural protein)
chain: METLCQRLNVCQDKILTHYENDSTDLRDHIDYWKHMRLECAIYYKAREMGFKHINHQVVPTLAVSKNKALQALELQLTLETIYNSQYSNEKWTLQDVSLEVYLTAPTGCIKKHGYTVEVQFDGDICNTMHYTNWTHIYICEEASVTVVEGQVDYYGLYYVHEGIRTYFVQFKDDAEKYSKNKVWEVHAGGQVILCPTSVFSSNEVSSPEIIRQHLANHPAATHTKAVALGTEETQTTIQRPRSEPDTGNPCHTTKLLHRDSVDSAPILTAFNSSHKGRINCNSNTTPIVHLKGDANTLKCLRYRFKKHCTLYTAVSSTWHWTGHNVKHKSAIVTLTYDSEWQRDQFLSQVKIPKTITVSTGFMSI
modifications: 35S-labeled
notes: source: in vitro translated (TNT Coupled Reticulocyte Lysate System, Promega), 35S-labeled
B2: HPV16 E2 R37K (natural protein)
chain: B1 chain with R37K, L73I
modifications: 35S-labeled
notes: as for B1

Target: T1, Purified FLAG-tagged Brd4 (UniProt O60885 1-1362)
T1 construct: source: purified, described previously [13]
Test: pull-down
Details: one partner purified

| Binder | percent of wildtype E2 binding |
| --- | --- |
| B1 | < 20 % of wildtype E2 binding |
| B2 | < 20 % of wildtype E2 binding |
